{"source": "patent US20170355774A1", "key": {"[1]": {"target": "hGITR.hFc (human)", "sequence (chain, as listed by the source limits assumed)": "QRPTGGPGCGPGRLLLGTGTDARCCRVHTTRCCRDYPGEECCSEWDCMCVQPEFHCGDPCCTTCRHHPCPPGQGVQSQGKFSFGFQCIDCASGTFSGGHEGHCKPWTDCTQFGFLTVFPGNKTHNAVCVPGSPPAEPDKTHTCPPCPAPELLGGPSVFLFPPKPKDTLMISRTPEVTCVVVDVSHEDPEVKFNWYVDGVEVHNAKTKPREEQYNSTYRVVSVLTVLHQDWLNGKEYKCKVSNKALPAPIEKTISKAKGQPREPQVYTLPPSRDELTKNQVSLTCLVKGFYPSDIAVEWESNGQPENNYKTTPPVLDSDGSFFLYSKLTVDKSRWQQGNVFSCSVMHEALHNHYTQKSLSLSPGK", "test": "SPR 37C, mAb capture"}, "[2]": {"target": "hGITR.mmh (human)", "sequence (chain, as listed by the source limits assumed)": "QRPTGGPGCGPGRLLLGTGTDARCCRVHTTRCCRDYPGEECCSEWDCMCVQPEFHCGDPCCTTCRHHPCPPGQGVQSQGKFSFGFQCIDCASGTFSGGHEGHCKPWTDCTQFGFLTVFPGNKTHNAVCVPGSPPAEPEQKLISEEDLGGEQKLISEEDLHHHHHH", "test": "SPR 37C, mAb capture"}, "[3]": {"target": "mfGITR.mmh (Macaca fasicularis)", "sequence (chain, as listed by the source limits assumed)": "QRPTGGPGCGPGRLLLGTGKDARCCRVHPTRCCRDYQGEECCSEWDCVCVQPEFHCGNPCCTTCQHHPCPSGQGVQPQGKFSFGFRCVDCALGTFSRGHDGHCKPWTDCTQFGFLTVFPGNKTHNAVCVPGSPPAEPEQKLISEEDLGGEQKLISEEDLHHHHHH", "test": "SPR 37C, mAb capture"}, "[4]": {"target": "human GITR (amino acids M1-V241, NCBI Accession #NP_004186.1) expressed on cells (human) (UniProt Q9Y5U5)", "sequence (Q9Y5U5 26-241)": "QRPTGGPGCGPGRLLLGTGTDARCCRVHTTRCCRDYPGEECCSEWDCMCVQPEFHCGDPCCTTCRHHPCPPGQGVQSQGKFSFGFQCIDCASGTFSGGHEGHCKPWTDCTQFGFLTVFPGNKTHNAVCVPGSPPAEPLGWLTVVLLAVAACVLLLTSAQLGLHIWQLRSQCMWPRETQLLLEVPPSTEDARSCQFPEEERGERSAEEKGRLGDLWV", "test": "cell-based or functional assay"}}}
{"binder": "Anti-GITR Control Ab I-mIgG1 (antibody, from another filing, V domains shown) VH: QVTLKESGPGILKPSQTLSLTCSFSGFSLSTSGMGVGWIRQPSGKGLEWLAHIWWDDDKYYNPSLKSQLTISKDTSRNQVFLKITSVDTADAATYYCARTRRYFPFAYWGQGTLVTVSS VL: DIVMTQSQKFMSTSVGDRVSVTCKASQNVGTNVAWYQQKPGQSPKALIYSASYRYSGVPDRFTGSGSGTDFTLTINNVHSEDLAEYFCQQYNTDPLTFGAGTKLEIK", "values": [{"measurement": "Kd", "setting": "[1]", "value": 20.4, "unit": "nM"}, {"measurement": "koff", "setting": "[1]", "value": 0.0078, "unit": "s⁻¹"}, {"measurement": "kon", "setting": "[1]", "value": 382000, "unit": "M⁻¹ s⁻¹"}, {"measurement": "t½", "setting": "[1]", "value": 90, "unit": "s"}, {"measurement": "Kd", "setting": "[2]", "value": 122, "unit": "nM"}, {"measurement": "koff", "setting": "[2]", "value": 0.0263, "unit": "s⁻¹"}, {"measurement": "kon", "setting": "[2]", "value": 216000, "unit": "M⁻¹ s⁻¹"}, {"measurement": "t½", "setting": "[2]", "value": 24, "unit": "s"}, {"measurement": "Kd", "setting": "[3]", "value": 213, "unit": "nM"}, {"measurement": "koff", "setting": "[3]", "value": 0.0464, "unit": "s⁻¹"}, {"measurement": "kon", "setting": "[3]", "value": 218000, "unit": "M⁻¹ s⁻¹"}, {"measurement": "t½", "setting": "[3]", "value": 12, "unit": "s"}, {"measurement": "% Activation, NF-kB-Luc, non-anchored", "setting": "[4]", "value": 25, "unit": "%"}, {"measurement": "% Blocking, NF-kB-Luc, FcgR anchored", "setting": "[4]", "value": 60, "unit": "%"}, {"measurement": "% Blocking, NF-kB-Luc, non-anchored", "setting": "[4]", "value": 54, "unit": "%"}, {"measurement": "EC50, T-cell proliferation, FcgR anchored, donor 1", "setting": "[4]", "value": 37.2, "unit": "nM"}, {"measurement": "EC50, T-cell proliferation, FcgR anchored, donor 3", "setting": "[4]", "value": 42.9, "unit": "nM"}, {"measurement": "EC50, T-cell proliferation, FcgR anchored, donor 4", "setting": "[4]", "value": 3.5, "unit": "nM"}, {"measurement": "EC50, T-cell proliferation, FcgR anchored, donor 5", "setting": "[4]", "value": 52.7, "unit": "nM"}, {"measurement": "EC50, T-cell proliferation, FcgR anchored, mean", "setting": "[4]", "value": 34.1, "unit": "nM"}, {"measurement": "EC50, hGITR activation, NF-kB-Luc, FcgR anchored", "setting": "[4]", "value": 0.1, "unit": "nM"}, {"measurement": "EC50, hGITR activation, NF-kB-Luc, non-anchored", "setting": "[4]", "value": 1.02, "unit": "nM"}, {"measurement": "Fold Activation over basal signal, NF-kB-Luc, FcgR anchored", "setting": "[4]", "value": 6, "unit": "fold"}, {"measurement": "IC50, blocking of hGITRL stimulation, NF-kB-Luc, FcgR anchored", "setting": "[4]", "value": 0.2, "unit": "nM"}, {"measurement": "IC50, blocking of hGITRL stimulation, NF-kB-Luc, non-anchored", "setting": "[4]", "value": 0.1, "unit": "nM"}, {"measurement": "fold activation, T-cell proliferation, 22 nM, non-anchored, donor 1", "setting": "[4]", "value": 0.7, "unit": "fold"}, {"measurement": "fold activation, T-cell proliferation, 22 nM, non-anchored, donor 2", "setting": "[4]", "value": 0.8, "unit": "fold"}, {"measurement": "fold activation, T-cell proliferation, 22 nM, non-anchored, donor 3", "setting": "[4]", "value": 1, "unit": "fold"}, {"measurement": "fold activation, T-cell proliferation, 22 nM, non-anchored, donor 4", "setting": "[4]", "value": 1, "unit": "fold"}, {"measurement": "fold activation, T-cell proliferation, 22 nM, non-anchored, mean", "setting": "[4]", "value": 0.9, "unit": "fold"}, {"measurement": "fold activation, T-cell proliferation, 33 nM, FcgR anchored, donor 1", "setting": "[4]", "value": 2.8, "unit": "fold"}, {"measurement": "fold activation, T-cell proliferation, 33 nM, FcgR anchored, donor 2", "setting": "[4]", "value": 2.8, "unit": "fold"}, {"measurement": "fold activation, T-cell proliferation, 33 nM, FcgR anchored, donor 3", "setting": "[4]", "value": 1.4, "unit": "fold"}, {"measurement": "fold activation, T-cell proliferation, 33 nM, FcgR anchored, donor 4", "setting": "[4]", "value": 1.1, "unit": "fold"}, {"measurement": "fold activation, T-cell proliferation, 33 nM, FcgR anchored, donor 5", "setting": "[4]", "value": 1.7, "unit": "fold"}, {"measurement": "fold activation, T-cell proliferation, 33 nM, FcgR anchored, mean", "setting": "[4]", "value": 2, "unit": "fold"}, {"measurement": "fold activation, T-cell proliferation, plate-bound Ab 10.6 nM, donor 1", "setting": "[4]", "value": 6, "unit": "fold"}, {"measurement": "fold activation, T-cell proliferation, plate-bound Ab 10.6 nM, donor 2", "setting": "[4]", "value": 23, "unit": "fold"}, {"measurement": "fold activation, T-cell proliferation, plate-bound Ab 10.6 nM, donor 3", "setting": "[4]", "value": 23, "unit": "fold"}, {"measurement": "fold activation, T-cell proliferation, plate-bound Ab 10.6 nM, donor 4", "setting": "[4]", "value": 40, "unit": "fold"}, {"measurement": "fold activation, T-cell proliferation, plate-bound Ab 10.6 nM, donor 5", "setting": "[4]", "value": 23, "unit": "fold"}, {"measurement": "fold activation, T-cell proliferation, plate-bound Ab 10.6 nM, donor 6", "setting": "[4]", "value": 66, "unit": "fold"}, {"measurement": "fold activation, T-cell proliferation, plate-bound Ab 10.6 nM, donor 7", "setting": "[4]", "value": 25, "unit": "fold"}, {"measurement": "fold activation, T-cell proliferation, plate-bound Ab 10.6 nM, donor 8", "setting": "[4]", "value": 11, "unit": "fold"}, {"measurement": "fold activation, T-cell proliferation, plate-bound Ab 10.6 nM, mean", "setting": "[4]", "value": 27, "unit": "fold"}]}
{"binder": "Anti-GITR Control Ab I-mIgG2a (antibody, from another filing, V domains shown) VH: QVTLKESGPGILKPSQTLSLTCSFSGFSLSTSGMGVGWIRQPSGKGLEWLAHIWWDDDKYYNPSLKSQLTISKDTSRNQVFLKITSVDTADAATYYCARTRRYFPFAYWGQGTLVTVSS VL: DIVMTQSQKFMSTSVGDRVSVTCKASQNVGTNVAWYQQKPGQSPKALIYSASYRYSGVPDRFTGSGSGTDFTLTINNVHSEDLAEYFCQQYNTDPLTFGAGTKLEIK", "values": [{"measurement": "% Blocking, NF-kB-Luc, FcgR anchored", "setting": "[4]", "value": 74, "unit": "%"}, {"measurement": "EC50, hGITR activation, NF-kB-Luc, FcgR anchored", "setting": "[4]", "value": 0.2, "unit": "nM"}, {"measurement": "Fold Activation over basal signal, NF-kB-Luc, FcgR anchored", "setting": "[4]", "value": 5, "unit": "fold"}, {"measurement": "IC50, blocking of hGITRL stimulation, NF-kB-Luc, FcgR anchored", "setting": "[4]", "value": 0.01, "unit": "nM"}, {"measurement": "fold activation, T-cell proliferation, 33 nM, FcgR anchored, donor 1", "setting": "[4]", "value": 1.1, "unit": "fold"}, {"measurement": "fold activation, T-cell proliferation, 33 nM, FcgR anchored, donor 2", "setting": "[4]", "value": 0.1, "unit": "fold"}, {"measurement": "fold activation, T-cell proliferation, 33 nM, FcgR anchored, donor 3", "setting": "[4]", "value": 1, "unit": "fold"}, {"measurement": "fold activation, T-cell proliferation, 33 nM, FcgR anchored, donor 4", "setting": "[4]", "value": 1, "unit": "fold"}, {"measurement": "fold activation, T-cell proliferation, 33 nM, FcgR anchored, donor 5", "setting": "[4]", "value": 1.2, "unit": "fold"}, {"measurement": "fold activation, T-cell proliferation, 33 nM, FcgR anchored, mean", "setting": "[4]", "value": 1.3, "unit": "fold"}]}
